From US20200190213A1 (REVITOPE, published 2020)

T1: Recombinant soluble EpCAM-His6 protein (UniProt P16422 24-265)
T1 construct: Coated on ELISA plates at 5 ug/ml; also called target antigen; not shown: His6 tag
T1 sequence (looked up): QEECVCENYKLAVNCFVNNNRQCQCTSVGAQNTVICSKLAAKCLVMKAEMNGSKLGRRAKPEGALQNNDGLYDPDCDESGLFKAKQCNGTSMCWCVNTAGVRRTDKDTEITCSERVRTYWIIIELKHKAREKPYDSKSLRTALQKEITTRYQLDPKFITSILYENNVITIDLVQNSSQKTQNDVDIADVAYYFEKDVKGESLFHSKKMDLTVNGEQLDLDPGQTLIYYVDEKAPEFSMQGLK

T2: Recombinant soluble EpCAM-His6 protein (UniProt P16422 24-265)
T2 chain: T1 sequence (looked up)

B1: TWICE278 (other)
heavy: EVQLLEQSGAELVRPGTSVKISCKASGYAFTNYWLGWVKQRPGHGLEWIGDIFPGSGNIHYNEKFKGKATLTADKSSSTAYMQLSSLTFEDSAVYFCARLRNWDEPMDYWGQGTTVTVSSASTKGPSVFPLAPSSKSTSGGTAALGCLVKDYFPEPVTVSWNSGALTSGVHTFPAVLQSSGLYSLSSVVTVPSSSLGTQTYICNVNHKPSNTKVDKKVEPKSCDKTHTGGGGSGGGGSQVQLVESGGGVVQPGRSLRLSCAASGFTFSSYTMHWVRQAPGKGLEWVTFISYDGNNKYYADSVKGRFTISRDNSKNTLYLQMNSLRAEDTAIYYCARTGWLGPFDYWGQGTLVTVSSGGGIEGRGGGDKTHTCPPCPAPELLGGPSVFLFPPKPKDTLMISRTPEVTCVVVDVSHEDPEVKFNWYVDGVEVHNAKTKPREEQYQSTYRVVSVLTVLHQDWLNGKEYKCKVSNKALPAPIEKTISKAKGQPREPQVYTLPPSRDELTKNQVKLTCLVKGFYPSDIAVEWESNGQPENNYKTTPPVLDSDGSFFLYSLLTVDKSRWQQGNVFSCSVMHEALHNHYTQKSLSLSPG
light: ELVMTQSPSSLTVTAGEKVTMSCKSSQSLLNSGNQKNYLTWYQQKPGQPPKLLIYWASTRESGVPDRFTGSGSGTDFTLTISSVQAEDLAVYYCQNDYSYPLTFGAGTKLEIKRTVAAPSVFIFPPSDEQLKSGTASVVCLLNNFYPREAKVQWKVDNALQSGNSQESVTEQDSKDSTYSLSSTLTLSKADYEKHKVYACEVTHQGLSSPVTKSFNRGECGGGGSGGGGSGGGGSQAVVTQEPSLTVSPGGTVTLTCRSSTGAVTASNYANWVQQKPGQAPRGLIGGTNKRAPWTPARFSGSLLGGKAALTITGAQAEDEADYYCALWYSNLWVFGGGTKLTVLGGGIEGRGGGDKTHTCPPCPAPELLGGPSVFLFPPKPKDTLMISRTPEVTCVVVDVSHEDPEVKFNWYVDGVEVHNAKTKPREEQYQSTYRVVSVLTVLHQDWLNGKEYKCKVSNKALPAPIEKTISKAKGQPREPQVYTLPPSRDELTKNQVSLTCLVSGFYPSDIAVEWESNGQPENNYKTTPPVLDSDGSFKLYSKLTVDKSRWQQGNVFSCSVMHEALHNHYTQKSLSLSPG
notes: One TWICE component: anti-EpCAM (Solitomab) Fab, Ipilimumab VH, SP34 VL, FXa-cleavable linkers, hetero-Fc; Uncleaved in the EpCAM ELISA; In the bridging ELISA it was tested alone, also after FXa cleavage; also called Ipilimumab VH SP34 VL Fc
B2: TWICE335 (other)
heavy: EVQLLEQSGAELVRPGTSVKISCKASGYAFTNYWLGWVKQRPGHCLEWIGDIFPGSGNIHYNEKFKGKATLTADKSSSTAYMQLSSLTFEDSAVYFCARLRNWDEPMDYWGQGTTVTVSSGGGSGGGGSQVQLVESGGGVVQPGRSLRLSCAASGFTFSSYTMHWVRQAPGKGLEWVTFISYDGNNKYYADSVKGRFTISRDNSKNTLYLQMNSLRAEDTAIYYCARTGWLGPFDYWGQGTLVTVSSGGGIEGRGGGDKTHTCPPCPAPELLGGPSVFLFPPKPKDTLMISRTPEVTCVVVDVSHEDPEVKFNWYVDGVEVHNAKTKPREEQYQSTYRVVSVLTVLHQDWLNGKEYKCKVSNKALPAPIEKTISKAKGQPREPQVYTLPPSRDELTKNQVKLTCLVKGFYPSDIAVEWESNGQPENNYKTTPPVLDSDGSFFLYSLLTVDKSRWQQGNVFSCSVMHEALHNHYTQKSLSLSPG
light: ELVMTQSPSSLTVTAGEKVTMSCKSSQSLLNSGNQKNYLTWYQQKPGQPPKLLIYWASTRESGVPDRFTGSGSGTDFTLTISSVQAEDLAVYYCQNDYSYPLTFGCGTKLEIKGGGGSGGGGSQAVVTQEPSLTVSPGGTVTLTCRSSTGAVTASNYANWVQQKPGQAPRGLIGGTNKRAPWTPARFSGSLLGGKAALTITGAQAEDEADYYCALWYSNLWVFGGGTKLTVLGGGIEGRGGGDKTHTCPPCPAPELLGGPSVFLFPPKPKDTLMISRTPEVTCVVVDVSHEDPEVKFNWYVDGVEVHNAKTKPREEQYQSTYRVVSVLTVLHQDWLNGKEYKCKVSNKALPAPIEKTISKAKGQPREPQVYTLPPSRDELTKNQVSLTCLVSGFYPSDIAVEWESNGQPENNYKTTPPVLDSDGSFKLYSKLTVDKSRWQQGNVFSCSVMHEALHNHYTQKSLSLSPG
notes: The anti-EpCAM targeting moiety is a disulfide-stabilized Fv (Cys at VH 44 and VL 100, Kabat); hetero-Fc dimerization domain; also called dsFv Ipilimumab VH SP34 VL Fc
B3: CD3 Fc-fusion protein (murine IgG2a Fc) (Fc fusion)
chain: DGNEEMGGITQTPYKVSISGTTVILTCPQYPGSEILWQHNDKNIGGDEDDKNIGSDEDHLSLKEFSELEQSGYYVCYPRGSKPEDANFYLYLRARVCENCMEMD
notes: Soluble antigen of the bridging ELISA; not shown: murine IgG2a Fc

What was measured:
[1] = molecular target: T1, Recombinant soluble EpCAM-His6 protein; experiment: ELISA on coated EpCAM-His6
Description: TWICE molecules were engineered with the CD3 antibody SP34 and the CTLA4 antibody Ipilimumab and containing the hetero-Fc dimerization domain. In some examples, the anti-EpCAM antibody Solitomab was used as a Fab (TWICE277 and TWICE278), in other examples this antibody was used as a disulfide-stabilized Fv (dsFv, TWICE332 and TWICE335) by engineering a disulfide between the residue 44 of the VH and residue 100 of the VL (referring to Kabat numbering). The TWICE molecules were expressed and purified by Protein A affinity chromatography as described above, and their ability to bind to EpCAM was tested in an ELISA binding assay. Recombinant soluble EpCAM-His6 protein (produced in-house) was coated on ELISA plates at 5 μg/ml at 4° C. overnight and plates blocked with 1% BSA in PBS. Serial dilutions of TWICE were allowed to bind to EpCAM, and the bound TWICE were detected with a mouse anti-human Fc secondary (JDC-10 Abcam, ab99759).

[2] = molecular target: B3; experiment: CD3 bridging ELISA on coated EpCAM, CD3-Fc detected with anti-mouse Fc
Procedure: (§1) To test the domain swap and generation of functional paratopes (i.e., paired VH/VL domains) by TWICE pairs, a bridging ELISA assay was developed that measures the ability of TWICE pairs to bind target antigen and immune cell engaging molecules simultaneously. The schematic drawing in FIG. 9A illustrates the principle of this bridging ELISA. Briefly, the ELISA plates are coated with target antigen (recombinant soluble EpCAM, black hexagon) at a concentration of 5 μg/ml overnight. TWICE molecules can be activated by cleavage with FXa as described above, and then added to the plate at a serial dilution. The TWICE can bind to the target antigen with their target binding moiety, which is drawn as Fab (4 grey ovals) in FIG. 9A. Binding to the target antigen (EpCAM) on the plate brings the TWICEs in close proximity, which allows the immune cell binding domain and the complementary binding domain to undergo domain swap and form complete immune cell binding paratopes (black and white ovals in FIG. 9A). The functional complementation is measured by incubation with an antigen that is bound by the immune cell binding domain, such as CD3 (striped triangle in FIG. 9A). The antigen is provided as an Fc-fusion protein (murine IgG2a Fc), and can therefore be detected with an anti-mouse Fc secondary antibody. […]

[3] = molecular target: T3, CTLA-4 Fc-fusion protein (murine IgG2a Fc) (murine, UniProt P16410 36-161 (human entry), limits assumed); experiment: CTLA-4 bridging ELISA on coated EpCAM, CTLA-4-Fc detected with anti-mouse Fc
T3 construct: Soluble antigen of the bridging ELISA; not shown: murine IgG2a Fc
Procedure: as §1

[4] = molecular target: T2, Recombinant soluble EpCAM-His6 protein; experiment: ELISA
[5] = molecular target: T4, TWICE277 plus TWICE278, combined, not cleaved; experiment: CD3 bridging ELISA on coated EpCAM
T4 construct: Two-component pair with intact hetero-Fc dimerization domains
Procedure: as §1

T3 sequence (P16410 36-161 limits assumed): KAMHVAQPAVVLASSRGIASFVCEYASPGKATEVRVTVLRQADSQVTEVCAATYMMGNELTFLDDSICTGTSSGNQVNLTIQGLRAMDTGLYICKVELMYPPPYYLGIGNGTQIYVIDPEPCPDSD

binding result [1] | binding result [2] | binding result [3] | EC50 [4] | binding result [5] | Binder
binds | no binding | no binding | 1.21 nM |  | B1
binds |  |  | 1.04 nM |  | B2
 |  |  |  | no binding | B3
